Measured values reported in PMC4447404.
Where “and” joins values, the source holds several entries; their conditions need not be identical. Identical values can stand only once.

Test system: DnaA-his (Bacillus subtilis)
Experiment: IDAP-Seq (affinity pull-down)
Conditions: 40 mM HEPES-KOH pH 7.6, 150 mM K-glutamate, 2.5 mM ATP or ADP, 10 mM Mg acetate, 0.2 mM DTT, 50 ug/ml BSA, 0.1 mM EDTA, 20% glycerol, 4% sucrose, 0.2 mg/ml …

Row | Substance | Kd | binding signal (fold ATP/ADP DNA recovered) (550 nM DnaA)
1 | codV internal (peak 9) | 1100 nM and 1900 nM | 
2 | gcp/ydiF downstream (peak 4) | 150 nM and 330 nM | 
3 | ggaA internal (peak 18) | 2700 nM and 4800 nM | 
4 | oriC dnaA-dnaN (peak 2) | 160 nM and 300 nM | 
5 | oriC upstream of dnaA (peak 1) | 210 nM and 330 nM | 
6 | rlmCD internal (peak 20) | 7500 nM and 6700 nM | 
7 | rplB internal (peak 10) | 1400 nM and 1200 nM | 
8 | trmE upstream / jag downstream (peak 5) | 330 nM and 430 nM | 
9 | yhcA internal (peak 12) | 3600 nM and 2800 nM | 
10 | yhcN internal (peak 15) | 19400 nM and 6900 nM | 
11 | yhdF internal |  | 24
12 | ynaI downstream / xynP upstream (peak 11) | 2000 nM and 3000 nM | 
13 | yopH internal (peak 19) | 4900 nM and 5000 nM | 
14 | yorF internal (peak 13) | 2000 nM and 3000 nM | 
15 | yqeG/sda upstream (peak 7) | 150 nM and 510 nM | 
16 | yutJ internal (peak 16) | 2500 nM and 2900 nM | 
17 | yvmC/yvmB upstream (peak 14) | 2200 nM and 4400 nM | 
18 | ywcI/vpr upstream (peak 3) | 130 nM and 170 nM | 
19 | ywlC upstream / ywlB downstream (peak 6) | 250 nM and 450 nM | 
20 | yydA upstream / yyzF downstream (peak 8) | 160 nM and 330 nM | 
21 | yydH internal (peak 17) | 2400 nM and 4600 nM | 
